The values that follow come from US9089565B2, “Compositions and methods for causing neurite outgrowth” (MEDICAL RESEARCH COUNCIL, priority 2009, dated 2015).

Assay [1] deals with Entorhinal-hippocampal slices. The assay can be described thus: Regeneration of entorhinal-hippocampal projection in lesioned organotypic slice culture (Dil tracing). The assay is classed as cell-based, mice. The following applies: slices treated with either PKA or ATP alone, 8 days. Here is the method: (A) Organotypic culture of Entorhinal-hippocampal slices was prepared from 129X1/SvJJmsSlc (albino) mice postnatal day 5 and 6. Culture media were changed every 2 days. […], On the day in vitro (DIV) 10, the entorhinal-hippocampal projection was transected with sterile scalpel brade. The lesioned slices were cultured for 8 days with or without 1250 U/ml PKA and 100 μM ATP. On the DIV17, a small aliquot of Dil paste (Invitrogen) was applied on the entorhinal side of the transection. […] Location of lesion made at DIV 10 is indicated as a white dot line. (B) Intensity of Dil signal near the dentate gyrus was measured with ImageJ (version 1.42q, National institute of health, USA). Measured area (100 μm square) was indicated in (A) as a open white square. Intensity was indicated as a percentage of Dil signal in control (not lesioned). Experiment was repeated for 5 time in triplicate. Typical images are indicated in (A), and average of the 5 independent experiments was plotted in (B). A student t-test was used to assess statistical significance.
In FIG. 10, entorhinal-hippocampal slices from mice postnatal day 5 or 6 were transected on day in vitro (DIV) 10, and they were incubated with or without PKA and ATP for 8 days. […]

The subject of assay [2] is NgR1. Put plainly: Phosphorylation of endogenous NgR1 (upper band, immunoblotting) in RA-treated SH-SY5Y cells. Format: cell-based, human. The following applies: BDNF treatment 24 hours. As to the method: (§1) FIG. 1. BDNF promotes neurite outgrowth of RA-treated SH-SY5Y, and induces phosphorylation of NgR1. (A) SH-SY5Y cells were incubated with indicated reagents. Cell images were taken with phase contrast microscopy. (B) Number of cells extending neurite-like structures of more than 40 μm and total cell number were counted from images taken in (A). More than 300 cells were examined in each sample. The proportion of cells extending neurite-like structures of more than 40 μm was indicated as a percentage of total cell number. An average of three experiments is shown. Error bars indicate S. E. between experiments. Data were analysed with student's t test. (C) Whole cell extracts were prepared from RA-treated SH-SY5Y cells after incubation with or without BDNF for 24 hours, and were analysed by SDS-PAGE. Immunoblotting was performed with the indicated antibodies. (D) Whole cell extract prepared from cells treated with both RA and BDNF was incubated with the indicated reagents for 1 hour at 37° C. Immunoblotting was performed with anti-NgR1 antibody. (E) RA-treated SH-SY5Y cells were incubated with BDNF in the presence or absence of one of the following: PKC inhibitor—500 nM Gö6983 or Gö6976; PKA inhibitor—2 μM KT5720 or a PKA inhibitor peptide 14-22; or either 500 nM or 1 μM of a casein kinase inhibitor, for 24 hours. Whole cell extracts prepared from these cells were analysed by SDS-PAGE. Immunoblotting was performed with anti-NgR1 antibody.
SH-SY5Y cells were cultured in Ham's F12 medium with 10% foetal bovine serum at 37° C. in 5% CO2 and 95% air. Passage numbers between 15 and 21 were used in experiments described in this paper. Further passages induce spontaneous differentiation and cells tend to extend neurites without BDNF (data not shown). For RA treatment, the cells are seeded (20,000 cells/well) on collagen IV coated 4 well chamber slides. After 24 hours culture, medium was changed to Ham's F12 medium containing 10 μM RA and 10% foetal bovine serum. Medium was changed to fresh medium on day 3 and cells were used for experiments after 5 days culture. Encinas et al. (18) reported that RA-treated SH-SY5Y cells initiate apoptosis after withdrawal of serum only when the cells are cultured at low density. The cell density used in this paper was higher than that in the paper by Encinas et al. (18) and cell death due to depletion of serum or BDNF was not significant. In this paper, the SH-SY5Y cells treated with RA for 5 days are called RA-treated SH-SY5Y. For BDNF treatment, the RA-treated SH-SY5Y cells were washed with serum-free Ham's F12 medium and incubated with 25 ng/ml BDNF in serum-free Ham's F12 medium for 24 hours. As a control (RA alone), the RA-treated SH-SY5Y cells were incubated with serum-free Ham's F12 alone for 24 hours.
Cells were scraped off from dishes and washed with PBS twice, and then resuspended in PBS containing 0.1% Triton X100 and phosphatase inhibitor cocktail (Roche) and EDTA-free protease inhibitor cocktail (Roche). After incubation for 15 min on ice, samples were centrifuged at 14,000×g for 20 min at 4° C. The supernatants containing 30 μg of proteins were analysed by SDS-PAGE and blotted to PVDF membrane. The PVDF membrane was incubated in blocking buffer (5% skimmed milk, 0.4% Triton X-100 in PBS) for 1 hour, first antibody diluted in the blocking buffer and appropriate secondary antibody labelled with horse radish peroxidase. Bound antibodies were visualised with ECL or ECL Plus kit (GE healthcare).
(In western blotting, separated proteins are transferred to a membrane and probed.)

Assay [3] relates to Nogo-A, LINGO-1. Put plainly: Immunoblotting of Nogo-A and LINGO-1 in RA-treated SH-SY5Y cells. The assay is classed as cell-based, human. The following applies: after BDNF treatment 24 hours. As to the method:
as §1, with “Immunoblotting was performed with anti-NgR1 antibody. (E) RA-treated SH-SY5Y cells were incubated with BDNF in the presence or absence of one of the following: PKC inhibitor—500 nM Gö6983 or Gö6976; PKA inhibitor—2 μM KT5720 or a PKA inhibitor peptide 14-22; or either 500 nM or 1 μM of a casein kinase inhibitor, for 24 hours.” left out, “Immunoblotting was performed with anti-NgR1 antibody.” left out
Cells were scraped off from dishes and washed with PBS twice, and then resuspended in PBS containing 0.1% Triton X100 and phosphatase inhibitor cocktail (Roche) and EDTA-free protease inhibitor cocktail (Roche). […] The supernatants containing 30 μg of proteins were analysed by SDS-PAGE and blotted to PVDF membrane. […]

Take `Nc1ncnc2c1ncn2[C@@H]1O[C@H](COP(=O)(O)OP(=O)(O)OP(=O)(O)O)[C@@H](O)[C@H]1O` [ATP]: the “location of Dil” value in assay [1] is “location of Dil was limited in the entorhinal side of the transection”.

B1: BDNF: brain-derived neurotrophic factor, member of the neurotrophin nerve growth factor family, purchased from Merck (protein, UniProt P23560 19-247, looked up)
Neurotrophic factor BDNF …: APMKEANIRGQGGLAYPGVRTHGTLESVNGPKAGSRGLTSLADTFEHVIEELLDEDQKVRPNEENNKDADLYTSRVMLSSQVPLEPPLLFLLEEYKNYLDAANMSMRVRRHSDPARRGELSVCDSISEWVTAADKKTAVDMSGGTVTVLEKVPVSKGQLKQYFYETKCNPMGYTKEGCRGIDKRHWNSQCRTTQSYVRALTMDSKKRIGWRFIRIDTSCVCTLTIKRGR
In the case of B1, the “upper band of NgR1 (phosphorylated NgR1)” value in assay [2] is reported as “increased”. Besides, the “Nogo-A and LINGO-1 protein levels” value in assay [3] was “neither Nogo-A nor LINGO-1 showed significant changes”.
